Assay results from PMC4703059.

Biological target: Full-length wt Lst7 (K. lactis) with C-terminal Strep tag (Kluyveromyces lactis)
Assay: AUC + SEC-MALS; purified K. lactis Lst7/Lst4 complex; AUC sedimentation velocity with interference data at 0.15 mg/ml, SEDFIT; SEC-MALS of 50 µg in 50 µl on TSKgel SuperSW2000 in PBS, 0.35 ml/min

stoichiometry N: 1
B1: Engineered Lst4 (K. lactis) aa58-714 with a deletion of the intra-DENN loop (aa 388-534) (domain or fragment)
chain: NDRLHNGGFRLIISQELGHVTSRNNYQVVLDHSSVNFHTGAHIPLNELKDYIFGSSIRTIDYSASSDKIKVVKSANIVLFTRIFYLNEKSTLRIAISCCVTDDVLPVLTECWPHISSFLDQCENTLLKYLAKNDTQFLPHDWKARNCIEVAAVLQTFQRKIIPLLSGYSDTPRLFLYPMDSIPYIKTWVKYVTNWIELKDGPRVRFLPILLAKLRYDFASLLKENSNTRIVILTGNMNVANRLIFILTAFLGPHFRGTLHKSINSQGCPSPAGRKMSNMSGASDFPFELKPSNSSITETNKGWEIPRIKRDPTFSVTSVSSDETGVQTFILNDAFADLVIDPPSYDTTVSNEKHGEIVEVNMASPRKQRNNQNQELLRRFTSYTPHYNQWFQLQACQITTESENKVIHSMKRDLTYADQDPCKKDKSTSTLLISLRSREIKQVTIVRDTNNRFIQRTKKILQNGKVGPVSRAMLSGIETTDQHLKKLMECNNDNEALVSLFNDIVTCAST
